Substitutions are numbered along the chain they refer to. One block for each binder: values may come before it.
Tests used:
[1] = biological target: T1, human CD71 extracellular domain (human, UniProt P02786 89-760, biotinylated); assay: primary ELISA; further: test concentration or dose not given here
T1 construct: also called hCD71; CD71-ECD

[2] = biological target: T2, apical domain of human CD71 (human, UniProt P02786 189-383, limits assumed); assay: primary ELISA; further: test concentration or dose not given here
T2 construct: domain: apical domain; Screen 4 panned on human apical domains, the ELISA text says only 'apical domain'
T2 sequence (P02786 189-383 limits assumed): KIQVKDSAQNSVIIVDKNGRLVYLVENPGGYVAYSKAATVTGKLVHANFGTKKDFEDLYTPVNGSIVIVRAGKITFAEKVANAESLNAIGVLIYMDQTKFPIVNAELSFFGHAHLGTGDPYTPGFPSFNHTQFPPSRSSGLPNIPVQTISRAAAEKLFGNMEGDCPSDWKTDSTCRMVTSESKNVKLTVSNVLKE

[3] = biological target: T1, human CD71 extracellular domain; assay: primary ELISA, RLU over HSA
[4] = biological target: T2, apical domain of human CD71; assay: primary ELISA, RLU over HSA

T1 sequence (P02786 89-760): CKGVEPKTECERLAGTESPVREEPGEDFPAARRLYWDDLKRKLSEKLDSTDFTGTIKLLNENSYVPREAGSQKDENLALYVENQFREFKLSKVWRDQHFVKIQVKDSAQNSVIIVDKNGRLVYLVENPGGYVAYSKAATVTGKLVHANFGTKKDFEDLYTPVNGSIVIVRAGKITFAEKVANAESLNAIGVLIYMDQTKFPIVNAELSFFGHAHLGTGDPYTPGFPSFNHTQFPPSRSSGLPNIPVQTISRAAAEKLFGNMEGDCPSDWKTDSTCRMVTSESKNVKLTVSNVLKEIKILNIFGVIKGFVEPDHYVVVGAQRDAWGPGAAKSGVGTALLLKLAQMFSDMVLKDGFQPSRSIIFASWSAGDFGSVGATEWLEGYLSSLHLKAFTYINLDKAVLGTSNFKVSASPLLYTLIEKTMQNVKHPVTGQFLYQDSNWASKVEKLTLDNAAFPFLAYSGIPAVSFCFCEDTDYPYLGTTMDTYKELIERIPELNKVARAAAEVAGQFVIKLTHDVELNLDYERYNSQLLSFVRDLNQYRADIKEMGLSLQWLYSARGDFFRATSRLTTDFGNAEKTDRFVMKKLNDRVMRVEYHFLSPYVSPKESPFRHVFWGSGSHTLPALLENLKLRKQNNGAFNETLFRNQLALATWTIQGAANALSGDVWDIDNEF

RLU [1]: 1.56e+06 RLU
RLU [2]: 4.83e+06 RLU
hCD71:HSA [3]: 55
Apical domain:HSA [4]: 171
B1: CD71-binding FN3 domain of SEQ ID NO: 455 (designed binder)
chain: MLPAPKNLVVSRVTEDSARLSWTAPDAAFDSFTISYPEEAKHGEAIVLTVPGSERSYDLTGLKPGTEYGVPINGVKGGVSSLPLSAIFTT

RLU [1]: 3.44e+06 RLU
RLU [2]: 4.64e+06 RLU
hCD71:HSA [3]: 51
Apical domain:HSA [4]: 69
B2: CD71-binding FN3 domain of SEQ ID NO: 458 (designed binder)
chain: MLPAPKNLVVSRVTEDSARLSWTAPDAAFDSFLDLLPSNWDIAGEAIVLTVPGSERSYDLTGLKPGTEYHVNILGVKGGKESLPLVANFTT

RLU [1]: 2.06e+06 RLU
RLU [2]: 3.87e+06 RLU
hCD71:HSA [3]: 124
Apical domain:HSA [4]: 233
B3: CD71-binding FN3 domain of SEQ ID NO: 512 (designed binder)
chain: MLPAPKNLVVSRVTEDSARLSWTAPDAAFDSFFIGYLEPQPPGEAIDLWVPGSERSYDLTGLKPGTEYNVTIQGVKGGFPSDPLDAHFTT

RLU [1]: 5.29e+06 RLU
RLU [2]: 4.65e+06 RLU
hCD71:HSA [3]: 207
Apical domain:HSA [4]: 182
B4: CD71-binding FN3 domain of SEQ ID NO: 543 (designed binder)
chain: B3 chain with D47S, W49Y, D82I, D85V, H87V

RLU [1]: 4.29e+06 RLU
RLU [2]: 3.38e+06 RLU
hCD71:HSA [3]: 362
Apical domain:HSA [4]: 285
B5: CD71-binding FN3 domain of SEQ ID NO: 535 (designed binder)
chain: B3 chain with D47H, W49Q, D85V, H87K

RLU [1]: 3.91e+06 RLU
RLU [2]: 3.48e+06 RLU
hCD71:HSA [3]: 318
Apical domain:HSA [4]: 283
B6: CD71-binding FN3 domain of SEQ ID NO: 522 (designed binder)
chain: B3 chain with D47T, W49Y, T60N, D82M, D85S, H87I

RLU [1]: 5.14e+06 RLU
RLU [2]: 4.67e+06 RLU
hCD71:HSA [3]: 97
Apical domain:HSA [4]: 88
B7: CD71-binding FN3 domain of SEQ ID NO: 515 (designed binder)
chain: B3 chain with D47A, D82T, D85I, H87Q

RLU [1]: 2.13e+06 RLU
RLU [2]: 3e+06 RLU
hCD71:HSA [3]: 169
Apical domain:HSA [4]: 237
B8: CD71-binding FN3 domain of SEQ ID NO: 542 (designed binder)
chain: B3 chain with D47E, W49F, D82M, D85S, H87I

RLU [1]: 1.85e+06 RLU
RLU [2]: 3.34e+06 RLU
hCD71:HSA [3]: 150
Apical domain:HSA [4]: 271
B9: CD71-binding FN3 domain of SEQ ID NO: 518 (designed binder)
chain: B3 chain with D47S, D85G

RLU [1]: 5.92e+06 RLU
RLU [2]: 5.94e+06 RLU
hCD71:HSA [3]: 119
Apical domain:HSA [4]: 119
B10: CD71-binding FN3 domain of SEQ ID NO: 514 (designed binder)
chain: B3 chain with D47H, W49F, D82E, D85I, H87N

RLU [1]: 5.57e+06 RLU
RLU [2]: 4.93e+06 RLU
hCD71:HSA [3]: 185
Apical domain:HSA [4]: 164
B11: CD71-binding FN3 domain of SEQ ID NO: 538 (designed binder)
chain: B3 chain with W49Y, D82H, D85V, H87V

RLU [1]: 4.13e+06 RLU
RLU [2]: 3.24e+06 RLU
hCD71:HSA [3]: 466
Apical domain:HSA [4]: 366
B12: CD71-binding FN3 domain of SEQ ID NO: 529 (designed binder)
chain: B3 chain with W49Y, D82L, D85Q

RLU [1]: 2.52e+06 RLU
RLU [2]: 2.72e+06 RLU
hCD71:HSA [3]: 186
Apical domain:HSA [4]: 201
B13: CD71-binding FN3 domain of SEQ ID NO: 513 (designed binder)
chain: B3 chain with D47S, W49Y, D82L, D85A, H87Q

RLU [1]: 1.79e+06 RLU
RLU [2]: 3.42e+06 RLU
hCD71:HSA [3]: 73
Apical domain:HSA [4]: 140
B14: CD71-binding FN3 domain of SEQ ID NO: 541 (designed binder)
chain: B3 chain with D82M, H87Y

RLU [1]: 4.04e+06 RLU
RLU [2]: 4.07e+06 RLU
hCD71:HSA [3]: 241
Apical domain:HSA [4]: 243
B15: CD71-binding FN3 domain of SEQ ID NO: 544 (designed binder)
chain: B3 chain with D47A, W49L, D82H, D85S, H87S

RLU [1]: 3.22e+06 RLU
RLU [2]: 3.95e+06 RLU
hCD71:HSA [3]: 190
Apical domain:HSA [4]: 232
B16: CD71-binding FN3 domain of SEQ ID NO: 524 (designed binder)
chain: B3 chain with D47H, D82M, D85S, H87I

RLU [1]: 4.22e+06 RLU
RLU [2]: 4.22e+06 RLU
hCD71:HSA [3]: 327
Apical domain:HSA [4]: 327
B17: CD71-binding FN3 domain of SEQ ID NO: 545 (designed binder)
chain: B3 chain with D47S, W49V, D82N, D85I, H87T

RLU [1]: 5.62e+06 RLU
RLU [2]: 5.38e+06 RLU
hCD71:HSA [3]: 186
Apical domain:HSA [4]: 178
B18: CD71-binding FN3 domain of SEQ ID NO: 521 (designed binder)
chain: B3 chain with D47V, D82H, D85V

RLU [1]: 5.2e+06 RLU
RLU [2]: 5.76e+06 RLU
hCD71:HSA [3]: 187
Apical domain:HSA [4]: 207
B19: CD71-binding FN3 domain of SEQ ID NO: 534 (designed binder)
chain: B3 chain with D47H, W49L, D82G, D85Q, H87S

RLU [1]: 3.18e+06 RLU
RLU [2]: 5.25e+06 RLU
hCD71:HSA [3]: 146
Apical domain:HSA [4]: 241
B20: CD71-binding FN3 domain of SEQ ID NO: 533 (designed binder)
chain: B3 chain with D47N, W49F, D82M, D85S, H87I

RLU [1]: 4.73e+06 RLU
RLU [2]: 4.67e+06 RLU
hCD71:HSA [3]: 267
Apical domain:HSA [4]: 264
B21: CD71-binding FN3 domain of SEQ ID NO: 516 (designed binder)
chain: B3 chain with D47S, D82S, D85V, H87Y

RLU [1]: 6.02e+06 RLU
RLU [2]: 5.93e+06 RLU
hCD71:HSA [3]: 49
Apical domain:HSA [4]: 48
B22: CD71-binding FN3 domain of SEQ ID NO: 525 (designed binder)
chain: B3 chain with D47A, W49Y, D82E, D85V, H87T

RLU [1]: 3.7e+06 RLU
RLU [2]: 5.37e+06 RLU
hCD71:HSA [3]: 497
Apical domain:HSA [4]: 721
B23: CD71-binding FN3 domain of SEQ ID NO: 526 (designed binder)
chain: B3 chain with D47S, W49I, D85I, H87I

RLU [1]: 6.59e+06 RLU
RLU [2]: 6.4e+06 RLU
hCD71:HSA [3]: 15
Apical domain:HSA [4]: 15
B24: CD71-binding FN3 domain of SEQ ID NO: 527 (designed binder)
chain: B3 chain with D47H, W49Y, D82E, D85I, H87N

RLU [1]: 3.12e+06 RLU
RLU [2]: 3.64e+06 RLU
hCD71:HSA [3]: 142
Apical domain:HSA [4]: 166
B25: CD71-binding FN3 domain of SEQ ID NO: 517 (designed binder)
chain: B3 chain with D47A, W49V, D82M, D85F, H87Y

RLU [1]: 4.19e+06 RLU
RLU [2]: 4.31e+06 RLU
hCD71:HSA [3]: 292
Apical domain:HSA [4]: 300
B26: CD71-binding FN3 domain of SEQ ID NO: 523 (designed binder)
chain: B3 chain with W49L, D82E, D85T, H87E

RLU [1]: 4.94e+06 RLU
RLU [2]: 6.08e+06 RLU
hCD71:HSA [3]: 167
Apical domain:HSA [4]: 205
B27: CD71-binding FN3 domain of SEQ ID NO: 539 (designed binder)
chain: B3 chain with D47H, W49F, D85H, H87A

RLU [1]: 4.61e+06 RLU
RLU [2]: 4.48e+06 RLU
hCD71:HSA [3]: 289
Apical domain:HSA [4]: 281
B28: CD71-binding FN3 domain of SEQ ID NO: 530 (designed binder)
chain: B3 chain with W49L, D82E, D85F

RLU [1]: 5.18e+06 RLU
RLU [2]: 5.58e+06 RLU
hCD71:HSA [3]: 169
Apical domain:HSA [4]: 182
B29: CD71-binding FN3 domain of SEQ ID NO: 528 (designed binder)
chain: B3 chain with D47T, W49L, D82I, D85I, H87I
